Results reported in the supplement of paper PMC9170038.

Tested on: MS2 coat protein
Assay: apparent KD of MS2 coat protein; designed switch direction (-1 OFF switch, 1 ON switch): -1; higher = weaker reporter binding
In short: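 Apparent KD, taken as the median over clusters for each design, was obtained by curve-fitting normalised cluster fluorescence. Designed RNA switches had been transcribed on Illumina chips by stalled E. coli RNA polymerase and titrated with SNAP-549-labelled MS2 coat protein, doubling from 0.7 or 1.5 nM to 3 µM.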

[1] = input ligand: microRNA oligo, concentration not stated

| Sequence | apparent KD of MS2 coat protein (input ligand: FMN 200 uM) | apparent KD of MS2 coat protein [1] | apparent KD of MS2 coat protein (input ligand: none) |
| --- | --- | --- | --- |
| AAUCAUCAUGUAGGAUAUGCGUGGCGAAGCUAUGCAGAAGGACAUGAGGAUCACCCAUGUUCUUGCGUCUGCGUACAGAUGCAA [Mat - Exclusion NG 1 - Mod of JL - D72] (Eterna round: R96, puzzle: Exclusion NG 1) | 135 nM | 67.7 nM | 72 nM |
| AAUCGGUGAGGAUAUCUAUUGCGGGAGGAAAUUCGCGAAACGGAGAAGGCACAUGAGGAUCACCCAUGUGAAUC [EX4 C.18] (Eterna round: R97, puzzle: Exclusion 4) | 25.7 nM | – | 18.8 nM |
| AAUCUACAUGUAGGAUAUGCGUGGCAAAGCUAUGCAGAAGGACAUGAGGAUCACCCAUGUUUUAGCGUCUGCGUACAGAUGCGA [Mat - Exclusion NG 1 - Mod of JL - D100] (Eterna round: R96, puzzle: Exclusion NG 1) | 147 nM | 18.4 nM | 27.9 nM |
| AAUGAGCAAGUCAGGAUAUUAAGCCACAGCUGGCGUAAGAAGGGACAUGAGGAUCACCCAUGUUCAUCCAAUGG [Eternabot (Original) Solution 15] (Eterna round: R97, puzzle: Brourd's mod of Exclusion 4) | 24.5 nM | – | 15.9 nM |
| AAUGAUUGACGAGGAUAUUGUGGUGAAACACGACGAGAAGGCGUAUGUCACAUGAGGAUCACCCAUGUGUGCUUUGUGGAUAUA [Ex NG1 #69] (Eterna round: R96, puzzle: Exclusion NG 1) | 39.7 nM | 24.2 nM | 31.1 nM |
| AAUUAAACAAGCAGAUCCCACAUGAGGAUCACCCAUGUGCUCGUCUUAUAAGGUACUGUGACAAAAGUCACGGUACC [Mat - Sensor, turn-off var - Eli Mod - D67] (Eterna round: R97, puzzle: Sensor, turn-off variant 1) | 47.9 nM | – | 51.7 nM |
| AAUUAACAUCAGGAUAUGACUAGCGAUAGCUAGUCAGAAGGGAUGACAUGAGGAUCACCCAUGUGAUCAAUUAA [E6/2-A4] (Eterna round: R97, puzzle: Exclusion 6) | 492 nM | – | 131 nM |
| AAUUAAUAUCAGGAUAUGACGUGCGAUAGCACGUCAGAAGGGAUGACAUGAGGAUCACCCAUGUGAUCAAUUAA [E6/1-A4] (Eterna round: R97, puzzle: Exclusion 6) | 150 nM | – | 33 nM |
| AAUUAGUAUGUGAGGAUAUUAAUGGAAUGACUUAUUAAGAAGGCACAUGAGGAUCACCCAUGUGGGAAGUCACG [JR_BMEx4_Sub013] (Eterna round: R97, puzzle: Brourd's mod of Exclusion 4) | 49.2 nM | – | 15.6 nM |
| AAUUAUUAUUGAGGAUAUGGUAGUGAAACACUACCAGAAGGCGGUAUAAACAUGAGGAUCACCCAUGUGAGCCUGAUGCUUAUG [Ex NG1 #45] (Eterna round: R96, puzzle: Exclusion NG 1) | – | 18.6 nM | – |
| AAUUAUUGAUGAGGAUAUUGUGGUGAAACACCACAAGAAGGCAUUAUACACAUGAGGAUCACCCAUGUGAGCCUGAUGCAUAUA [Ex NG1 #56] (Eterna round: R96, puzzle: Exclusion NG 1) | – | 13.2 nM | – |
| AAUUAUUGAUGAGGAUAUUGUGGUGAAACACGACGAGAAGGCAUAUGUCACAUGAGGAUCACCCAUGUGAGCCUUGUGCAUAUA [Ex NG1 #64] (Eterna round: R96, puzzle: Exclusion NG 1) | – | 15.8 nM | – |
| AAUUAUUUAUGAGGAUAUUGUGGUGAAACACCACAAGAAGGCAUGAUACACAUGAGGAUCACCCAUGUGAGCCUUAUGCAUAUA [Ex NG1 #57] (Eterna round: R96, puzzle: Exclusion NG 1) | – | 16.5 nM | – |
| AAUUAUUUUUGAGGAUAUCGUGGUGAAACACCACGAGAAGGCGAGAUACACAUGAGGAUCACCCAUGUGAGCCUGAUGCUUAUG [Ex NG1 #51] (Eterna round: R96, puzzle: Exclusion NG 1) | – | 11.5 nM | – |
| AAUUUACAUGAGGAUCACCCAUGUGAGGAUAUAUAUAUAUAUUUGUUAUUGUAUGUUUGUAGAAGGCGCGUGAU [JR_Exc1_Sub033] (Eterna round: R97, puzzle: Exclusion 1) | 33 nM | – | 39.2 nM |
| AAUUUGCAAGCGAGAUCCCACAUGAGGAUCACCCAUGUGCUCGUCUUAUAAGGUACUGUGACGAGAGUCACGGUACC [Mat - Sensor, turn-off var - Eli Mod - D91] (Eterna round: R97, puzzle: Sensor, turn-off variant 1) | 15.6 nM | – | 12.1 nM |
| ACAAAGCGAGGAUAUACACAGGUGUCCUGGGCGUCAAAUCGACAUGAGGAUCACCCAUGUAGAAGGCGCAAUAG [Diedated] (Eterna round: R97, puzzle: Exclusion 2) | 44.9 nM | – | 36.9 nM |
| ACAAAGGACAUGAGGAUCACCCAUGUGGUGCACAAGUCCAGCAAGGAUAUCCAAGUCCCAUAAACGGAGAAGGUGCAUAAUAAG [Inesxeed] (Eterna round: R96, puzzle: Exclusion NG 3) | 283 nM | 86.6 nM | 113 nM |
| ACAAGCUAACUCAUAUCUUACAUGAGGAUCACCCAUGUUUUUUCAAUUUUGUUUGGUCUCCUUUGUGCUCGUCUUAU [JR_STOV1_Sub052] (Eterna round: R97, puzzle: Sensor, turn-off variant 1) | 66 nM | – | 64.9 nM |
| ACAAGCUUGUAAUCAUUUAACAUGAGGAUCACCCAUGUAAAUGGAAGAACCAAUUUGAUAUGAUUUACUCGUCUUAU [JR_STOV1_Sub009] (Eterna round: R97, puzzle: Sensor, turn-off variant 1) | 257 nM | – | 267 nM |
| ACAAGCUUUACGAUCCUCUACAUGAGGAUCACCCAUGUGCUCGUAUUGUUUAGUACUAUCACGAAAGUGAUAGUACA [Sensor, turn off variant 1 v.5] (Eterna round: R97, puzzle: Sensor, turn-off variant 1) | 467 nM | – | 1090 nM |
| ACAAGCUUUGUUGUGGGUGACAUGAGGAUCACCCAUGUUUGCCACGUCUUGUGGGCCCGGGCCCGCGGCCCGGGCCC [-42.9, -63.9, A 13%] (Eterna round: R97, puzzle: Sensor, turn-off variant 1) | 50.3 nM | – | 55.1 nM |
| ACAAGCUUUUAGAUUCUUAACAUGAGGAUCACCCAUGUGCUCGUCUUAUUGGCCGGCGGGCCGCCGGAAAAGCUUGU (Eterna round: R97, puzzle: Sensor, turn-off variant 1) | 283 nM | – | 408 nM |
